According to patent US20220119489A1, “COMPOSITIONS AND METHODS FOR TREATING MUSCULAR DYSTROPHY AND RELATED DISORDERS” (CHILDREN'S MEDICAL CENTER CORPORATION, priority 2019, published 2022):

molecular target: T1, CD82 polypeptide (human) (human); experiment: IP with anti CD82 antibodies, human myotubes, mass spectrometry
T1 sequence (P27701 whole entry, looked up): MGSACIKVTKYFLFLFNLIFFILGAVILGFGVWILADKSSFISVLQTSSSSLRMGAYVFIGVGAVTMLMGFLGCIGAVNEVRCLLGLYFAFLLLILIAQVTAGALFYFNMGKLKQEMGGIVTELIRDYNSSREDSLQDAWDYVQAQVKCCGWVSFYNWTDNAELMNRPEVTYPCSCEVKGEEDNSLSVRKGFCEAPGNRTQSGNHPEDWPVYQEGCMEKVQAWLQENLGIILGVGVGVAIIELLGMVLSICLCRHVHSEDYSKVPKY

Annexin A2 (human), sequence (P07355 2-339 limits assumed): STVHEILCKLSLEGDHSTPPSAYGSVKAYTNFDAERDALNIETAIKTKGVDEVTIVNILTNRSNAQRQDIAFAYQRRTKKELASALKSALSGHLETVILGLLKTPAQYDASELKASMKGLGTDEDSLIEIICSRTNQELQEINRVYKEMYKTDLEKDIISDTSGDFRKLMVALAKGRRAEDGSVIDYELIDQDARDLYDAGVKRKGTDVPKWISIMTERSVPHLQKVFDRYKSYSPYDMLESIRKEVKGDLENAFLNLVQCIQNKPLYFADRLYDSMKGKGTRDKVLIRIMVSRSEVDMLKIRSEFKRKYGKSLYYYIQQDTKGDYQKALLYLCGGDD

Substance	Total	Unique
Annexin A2 (human) (from UniProt P07355)	5	5
Filamin B (from UniProt O75369)	3	3
profilin (from UniProt P07737)	3	3

Second part, the substance after the results:

Total	Unique	Substance
32	31	Myoferlin (from UniProt Q9NZM1)
77	64	nonmuscle myosin IIA (from UniProt P35579)
30	30	Filamin A (from UniProt P21333)
24	24	Filamin C (from UniProt Q14315)
32	31	Dysferlin (from UniProt O75923)

molecular target: CD82 (mouse) (mouse) (UniProt P40237); experiment: IP with anti CD82 antibodies, mouse muscle tissue, mass spectrometry

Total	Unique	Substance
2	2	KV2A7_MOUSE
2	2	G3P_MOUSE (from UniProt P16858) (enzyme)

Substance	Total	Unique
TBA1A_MOUSE (from UniProt P68369)	3	3
